Reference: patent US10525113B2, “Micellar polypeptide vaccine having pegylated phospholipids as carrier” (INSTITUTE OF BIOPHYSICS, CHINESE ACADEMY OF SCIENCES, priority 2014, dated 2020)
Ends that are not written are not given here. * marks the point of attachment. Palmitoyl = CCCCCCCCCCCCCCCC(=O)*

Key:
[1] = 100 μL subcutaneous, shoulder; 0 hour to 7 days; FIG. 3
Protocol: 20 μL of 10 mg/mL DMSO stock solution of rhodamine-labeled, fatty-acidified E7 polypeptide (sequence: palmitic acid-[sequence], rhodamine labeled in amino acid K, synthesized in Jill Biochemical Co., Ltd.) is added to 1 mL of sterile water to obtain a fluorescent polypeptide solution with the concentration of 0.2 mg/mL.
10 mg of PEG-PE powder is weighed and dissolved in 1 mL of chloroform in a test tube, and 0.2 mL of solution of rhodamine-labeled, fatty-acidified E7 polypeptide in methanol (1 mg/mL) is taken such that in micelle. The solution is gently shaken according to the method in Embodiment 1 to mix evenly. Nitrogen is used to blow and dry the solution to form a uniform thin membrane. The residual organic solvent and moisture are completely removed in a vacuum drier overnight. 1 mL of sterile normal saline is added, and 53° C. water bath incubation is conducted for 30 minutes for hydrated lipid membrane. A light purple uniform transparent solution is obtained, in which the concentration of fluorescent polypeptide is 0.2 mg/mL. […]
7 mg of DPPC and 3 mg of cholesterol are dissolved in chloroform separately and then mixed in a test tube, and 0.2 mL of solution of rhodamine-labeled, fatty-acidified E7 polypeptide in methanol (1 mg/mL) is taken. […] The concentration of fluorescence polypeptide is 0.2 mg/mL. […]

[2] = water / aqueous solution
Protocol: Thus, free antigenic polypeptide can be separated from the antigenic polypeptide loaded on micelle, and then the entrapment efficiency of antigenic polypeptide is calculated based on the change in the content of the antigenic polypeptide loaded on micelle in the solution. The entrapment efficiency=the amount of antigen to be entrapped/total antigen ×100%.

[3] = Entrapment efficiency of fatty-acidified antigenic polypeptide in PEG-PE micelle (centrifugation, rhodamine fluorescence); assay type: physicochemical; settings: lipid:MPLA (w/w) 100:1
Protocol: According to the proportions shown in Table 2 and Table 3, the micelles containing different proportions of polypeptides are prepared. The preparation process is carried out in the same manner as described in Embodiment 1. The prepared micelle vaccine solutions of different proportions are subjected to 14,000 g high-speed centrifugation for 30 minutes. The undissolved free antigenic polypeptide is separated from the antigen entrapped by micelle in the solution.
The maximal excitation wavelength of the rhodamine fluorescence labeled by the polypeptide is 535 nm and the maximum emission wavelength is 590 nm.
The antigen content in the solution is detected by fluorescence spectrophotometry, and then the effective entrapment efficiency of antigenic polypeptide is calculated according to the formula (see Table 2. Table 3, line 3). It can be seen that, in the condition where the mass ratio of PEG-PE to the fatty-acid-modified polypeptide is greater than or equal to 10:1, the entrapment efficiency is about 100%.

Substance | subcutaneous diffusion / localized retention at injection site [1] | solubility / state in water [2] | entrapment efficiency (%) ([3]; lipid:peptide (w/w) 1:1) | entrapment efficiency (%) ([3]; lipid:peptide (w/w) 2:1) | entrapment efficiency (%) ([3]; lipid:peptide (w/w) 5:1) | entrapment efficiency (%) ([3]; lipid:peptide (w/w) 10:1) | entrapment efficiency (%) ([3]; lipid:peptide (w/w) 20:1) | entrapment efficiency (%) ([3]; lipid:peptide (w/w) 50:1)
palmitic acid-GQAEPDRAHYNIVTFCCKCD (Palmitoyl-GQAEPDRAHYNIVTFCCKCD; cysteine pairing not given here) [E7 Antigenic Polypeptide, HPV16 E7 43-62 tumor-associated antigen with palmitic acid at the N-terminal] | subcutaneous localized retention at the injection site is evident | present in an aggregated form in aqueous solution | 25.48 | 67.76 | 97.99 | 100.00 | 100.00 | 100.00
palmitic acid-EQLESIINFEKLTEWKD (Palmitoyl-EQLESIINFEKLTEWKD) [OT-1 Antigenic Polypeptide] |  |  | 27.91 | 40.10 | 91.76 | 100.00 | 100.00 | 100.00
